What follows are sequences tested on Escherichia coli TOP10 (assay: shrunken log2 fold change of peptide-encoding DNA abundance (4.5 h post-induction vs induction); higher = less antimicrobial activity (less host growth inhibition)). Details: time post-induction: 4.5 h; library: site-saturation at positions 5, 18, 19, 20.
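Also: peptides expressed intracellularly from a pBAD plasmid library in pooled LB shake-flask culture, induced with 0.3% L-arabinose, DNA abundance read by NGS, three biological replicates, DESeq2 with apeglm shrinkage.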

Sequence	shrunken log2 fold change
RRIRDRPPRLPRPRPRPDENPRP	0.511
RRIRDRPPRLPRPRPRPNAKPRP	0.128
RRIRSRPPRLPRPRPRPMRLPRP	0.0162
RRIRYRPPRLPRPRPRPDSIPRP	-0.0267
RRIRVRPPRLPRPRPRPSFVPRP	-0.422
RRIRYRPPRLPRPRPRPNRTPRP	-0.211
RRIRIRPPRLPRPRPRPFMSPRP	-0.308
RRIRPRPPRLPRPRPRPNTSPRP	-0.237
RRIRDRPPRLPRPRPRPIAEPRP	0.195
RRIRNRPPRLPRPRPRPEYWPRP	-0.103
RRIRRRPPRLPRPRPRPRFQPRP	0.555
RRIRHRPPRLPRPRPRPPWGPRP	0.347
RRIRERPPRLPRPRPRPISSPRP	-0.403
RRIRKRPPRLPRPRPRPFMKPRP	-0.157
RRIRYRPPRLPRPRPRPMYVPRP	-0.0549
RRIRWRPPRLPRPRPRPCTMPRP	-0.00405
RRIRLRPPRLPRPRPRPVQEPRP	-0.0609
RRIRTRPPRLPRPRPRPANKPRP	-0.216
RRIRFRPPRLPRPRPRPSHAPRP	-0.149
RRIRKRPPRLPRPRPRPPLEPRP	0.456
RRIRCRPPRLPRPRPRPFSQPRP	-0.209
RRIRQRPPRLPRPRPRPDGSPRP	-0.0176
RRIRFRPPRLPRPRPRPRWIPRP	0.0967
RRIRGRPPRLPRPRPRPWSSPRP	-0.0552
RRIRRRPPRLPRPRPRPDCLPRP	-0.136

Sequence	shrunken log2 fold change
RRIRRRPPRLPRPRPRPCAQPRP	-0.0794
RRIRYRPPRLPRPRPRPFNLPRP	-0.271
RRIRERPPRLPRPRPRPARDPRP	0.19
RRIRPRPPRLPRPRPRPFYLPRP	-0.685
RRIRLRPPRLPRPRPRPDFKPRP	-0.06
RRIRYRPPRLPRPRPRPSSEPRP	0.0163
RRIRCRPPRLPRPRPRPYNQPRP	-1.23
RRIRSRPPRLPRPRPRPYNYPRP	-0.494
RRIRMRPPRLPRPRPRPDWPPRP	0.637
RRIRNRPPRLPRPRPRPMRKPRP	0.481
RRIRQRPPRLPRPRPRPTFMPRP	-0.552
RRIRRRPPRLPRPRPRPSRPPRP	0.464
RRIRERPPRLPRPRPRPWTGPRP	-0.00968
RRIRLRPPRLPRPRPRPDMKPRP	-0.286
RRIRQRPPRLPRPRPRPGRNPRP	-0.0272
RRIRRRPPRLPRPRPRPRPRPRP	0.86
RRIRARPPRLPRPRPRPTDTPRP	0.535
RRIRCRPPRLPRPRPRPRRAPRP	0.64
RRIRARPPRLPRPRPRPLMEPRP	0.493
RRIRQRPPRLPRPRPRPGSDPRP	0.337
RRIRSRPPRLPRPRPRPEMEPRP	0.00902
RRIRQRPPRLPRPRPRPKKRPRP	0.107
RRIRTRPPRLPRPRPRPPMDPRP	0.15
RRIRTRPPRLPRPRPRPDLCPRP	0.144
RRIRKRPPRLPRPRPRPHNPPRP	-0.0541

Sequence	shrunken log2 fold change
RRIRHRPPRLPRPRPRPEIDPRP	0.0729
RRIRNRPPRLPRPRPRPKCAPRP	0.243
RRIRERPPRLPRPRPRPQPVPRP	-0.13
RRIRSRPPRLPRPRPRPVCEPRP	0.369
RRIRVRPPRLPRPRPRPVDNPRP	-0.663
RRIRKRPPRLPRPRPRPPTNPRP	0.654
RRIRDRPPRLPRPRPRPMRHPRP	0.089
RRIRMRPPRLPRPRPRPDYMPRP	-0.00256
RRIRARPPRLPRPRPRPCDMPRP	0.208
RRIRNRPPRLPRPRPRPPEYPRP	-0.932
RRIRMRPPRLPRPRPRPCHAPRP	-0.00133
RRIRTRPPRLPRPRPRPVQLPRP	-0.16
RRIRPRPPRLPRPRPRPPTEPRP	0.306
RRIRNRPPRLPRPRPRPLGVPRP	0.129
RRIRRRPPRLPRPRPRPDQIPRP	-0.122
RRIRFRPPRLPRPRPRPRFWPRP	0.317
RRIRNRPPRLPRPRPRPNAVPRP	0.266
RRIRMRPPRLPRPRPRPQFRPRP	-0.235
RRIRQRPPRLPRPRPRPYYAPRP	-0.898
RRIRMRPPRLPRPRPRPYIGPRP	-0.00926
RRIRDRPPRLPRPRPRPILTPRP	-0.0144
RRIRNRPPRLPRPRPRPDELPRP	-0.134
RRIRSRPPRLPRPRPRPWEPPRP	-0.029
RRIRGRPPRLPRPRPRPQMKPRP	0.29
RRIRLRPPRLPRPRPRPEDFPRP	0.0854

Sequence	shrunken log2 fold change
RRIRPRPPRLPRPRPRPWDAPRP	0.0508
RRIRGRPPRLPRPRPRPFAWPRP	0.573
RRIRTRPPRLPRPRPRPCGPPRP	-0.0329
RRIRFRPPRLPRPRPRPHMEPRP	-0.405
RRIRKRPPRLPRPRPRPGYPPRP	0.0931
RRIRGRPPRLPRPRPRPQAPPRP	0.662
RRIRHRPPRLPRPRPRPTCTPRP	0.141
RRIRPRPPRLPRPRPRPSFEPRP	-0.102
RRIRVRPPRLPRPRPRPNIKPRP	-0.497
RRIRWRPPRLPRPRPRPDEWPRP	0.253
RRIRIRPPRLPRPRPRPVKHPRP	-0.107
RRIRRRPPRLPRPRPRPTQSPRP	0.804
RRIRLRPPRLPRPRPRPYSYPRP	-0.977
RRIRFRPPRLPRPRPRPWCAPRP	0.185
RRIRARPPRLPRPRPRPHCDPRP	0.214
RRIRDRPPRLPRPRPRPKDWPRP	0.601
RRIRLRPPRLPRPRPRPKVYPRP	-0.0494
RRIRLRPPRLPRPRPRPKIKPRP	-0.36
RRIRKRPPRLPRPRPRPQNEPRP	-0.0827
RRIRPRPPRLPRPRPRPQPLPRP	0.16
RRIRLRPPRLPRPRPRPMIKPRP	0.0349
RRIRLRPPRLPRPRPRPQIAPRP	-0.0971
RRIRERPPRLPRPRPRPQCKPRP	-0.276
RRIRFRPPRLPRPRPRPDAEPRP	0.373
RRIRARPPRLPRPRPRPTIVPRP	-0.152

Sequence	shrunken log2 fold change
RRIRARPPRLPRPRPRPDLVPRP	0.249
RRIRNRPPRLPRPRPRPYITPRP	-0.292
RRIRCRPPRLPRPRPRPTKSPRP	-0.0425
RRIRQRPPRLPRPRPRPRHCPRP	-0.0425
RRIRLRPPRLPRPRPRPFDAPRP	0.509
RRIRFRPPRLPRPRPRPWAHPRP	0.195
RRIRCRPPRLPRPRPRPWAYPRP	-0.508
RRIRIRPPRLPRPRPRPMYGPRP	-0.437
RRIRKRPPRLPRPRPRPDQWPRP	0.376
RRIRWRPPRLPRPRPRPSMVPRP	-0.129
RRIRARPPRLPRPRPRPFFWPRP	0.321
RRIRYRPPRLPRPRPRPPSMPRP	-0.692
RRIRVRPPRLPRPRPRPPSMPRP	-0.0312
RRIRTRPPRLPRPRPRPDWDPRP	0.223
RRIRTRPPRLPRPRPRPEVQPRP	0.0183
RRIRMRPPRLPRPRPRPPMRPRP	1.62
RRIRNRPPRLPRPRPRPQFLPRP	0.106
RRIRSRPPRLPRPRPRPAGSPRP	-0.209
RRIRYRPPRLPRPRPRPQMGPRP	0.0669
RRIRDRPPRLPRPRPRPVAKPRP	0.356
RRIRKRPPRLPRPRPRPWNYPRP	-0.154
RRIRERPPRLPRPRPRPFSQPRP	-0.347
RRIRNRPPRLPRPRPRPNWHPRP	-0.111
RRIRPRPPRLPRPRPRPPWYPRP	-0.195
RRIRERPPRLPRPRPRPHHNPRP	-0.817

Sequence	shrunken log2 fold change
RRIRARPPRLPRPRPRPFTRPRP	0.105
RRIRTRPPRLPRPRPRPTEFPRP	-0.0268
RRIRYRPPRLPRPRPRPGRLPRP	-0.0505
RRIRLRPPRLPRPRPRPEDMPRP	0.0524
RRIRQRPPRLPRPRPRPLENPRP	-0.0226
RRIRTRPPRLPRPRPRPPRFPRP	0.219
RRIRERPPRLPRPRPRPMKGPRP	-0.0658
RRIRDRPPRLPRPRPRPYESPRP	0.00683
RRIRGRPPRLPRPRPRPYDMPRP	-0.0187
RRIRQRPPRLPRPRPRPVIWPRP	0.124
RRIRLRPPRLPRPRPRPLSAPRP	0.0846
RRIRRRPPRLPRPRPRPLHLPRP	-0.318
RRIRWRPPRLPRPRPRPKNVPRP	-0.0641
RRIRERPPRLPRPRPRPYMEPRP	0.0111
RRIRKRPPRLPRPRPRPRVSPRP	0.198
RRIRTRPPRLPRPRPRPEDEPRP	0.0995
RRIRRRPPRLPRPRPRPEAFPRP	0.842
RRIRERPPRLPRPRPRPIPRPRP	-0.138
RRIRLRPPRLPRPRPRPQQYPRP	-0.277
RRIRHRPPRLPRPRPRPPDFPRP	0.0633
RRIRKRPPRLPRPRPRPSPVPRP	0.191
RRIRKRPPRLPRPRPRPFVSPRP	-0.176
RRIRKRPPRLPRPRPRPTFFPRP	0.368
RRIRHRPPRLPRPRPRPIHHPRP	-0.216
RRIRRRPPRLPRPRPRPVTFPRP	0.00522
